Laboratory results as given in patent US20220256794A1, “TERPENE SYNTHASES AND TRANSPORTERS” (The State of Israel, Ministry of Agriculture & Rural …, priority 2019, published 2022).

B1: 792-3: Cannabis terpene synthase gene product, amino acid SEQ ID NO: 8 (protein)
chain: MSYQVLASSQNDKVSKIVRPTTTYQPSIWGERFLQYSISDQDFSYKKQRVDELKEVVRREVFLECYDNVSYVLKIVDDVQRLGLSYHFENEIEKALQHIYDNTIHQNHKDEDLHDTSTRFRLLRQHGFMVSSNIFKIFKDEQGNFKECLITDILGLLSLYEASHLSYIGENILNEALAFTTTHLHQFVKNEKTHPLSNEVLLALQRPIRKSLERLHARHYISSYENKISHNKTLLELAKLDFNLLQCLHRKELSQISRWWKEIDFVHKLPFARDRIVELYLWLLGVFHEPELSLARIISTKVIALASVADDIYDAYGTFEELELLTESINRWDLNCADQLRPECLQTFYKVLLNCYEEFESELGKEESYKVYYAREAMKRLLGAYFSEARWLHEGYFPSFDEHLKVSLISCGYTMMIVTSLIGMKDCVTKQDFEWLSKDPKIMRDCNILCRFMDDIVSHKFEQQRDHSPSTVESYMRQYGVSEQEACDELRKQVINSWKEINKAFLRPSNVPYPVLSLVLNFSRVMDLLYKDGDGYTHIGKETKNSVVALLIDQIP
modifications: Terpene Synthase Gene Amino acid sequence of the 45 identified gene products
B2: AG046-1: Cannabis terpene synthase gene product, amino acid SEQ ID NO: 36 (protein)
chain: MIITGVISSSTPIFKDQPAAIVRRSGNYKPTLWDAHFFQSLQVIYTEESYGKRINELKEDVRRILEKEAENPLVKLEQINDLSRLGISYHFEDQIKTILNLTFNNNNALWKKDNLYATALHFKLLRQYGFSPVSSEVFNAFKDEKKEFKESLSKDVKGMVCLYEASFYSFRGEPILDEARDFTTKHLKQYLMTRQSQFTRVDHHDDDDHDLVKLVEHALDLPLHWRLPRLEARWFIDMYAERNYDMNPTFLDFAKLDYNFVQSAYQKELKYISRWWSGSRLTERLPFARDRVVEIFYSAVALKYEAEFGFVRTVMTKIGLLLTLMDDIYDVYGTLDELQLFLEAIERWNINELDQLPDYMKILFVAFYNNVNEISYYVLKENGIHTIKYLKKALGDLCKCYMEEAKWFHSGHIPSLEEFIENGWKSITIPLCLIYHYCLITTSITEQDMEHLLQYPTILRVSGTVFRFIDDLGTSSDELERGDNPSSIQCYMREKGVSENESREHIWNLISEGWKEINEVKASNSPYSQVFIESAIDFVRGAMEMYHKGDGFGTNQDRYLKTKVVNMFFDPIPI
modifications: Terpene Synthase Gene Amino acid sequence of the 45 identified gene products

Assay: Terpene synthase activity assay with FPP
Assay type: biochemical
Conditions: TPS expressed in E. coli; 10 μM FPP, overnight at 30° C., SPME GC-MS
Description: Putative terpene synthase genes were synthesized by the TWIST Co., and cloned into Novagen pET-28a(+) with a 6×His tag at its' N-terminus. The recombinant plasmid was then sequenced for authentication and transformed into BL21(DE3) pLysS and pLysE strains of E. coli (Agilent Technologies) for heterologous expression. An overnight culture was used to inoculate a 20-200 mL culture, induced with 0.1 mM IPTG at an OD 600 nm >0,8 for initiation of recombinant protein translation then incubated at 18° C. and 250 RPM overnight. The cells were collected by centrifugation and the recombinant enzymes were extracted either as a crude extract or purified on a Ni-NTA agarose resin as previously described [Gonda I. et al., The Plant Journal (2013) 61, 458-472]. […]
For solid-phase microextraction (SPME) analysis, a 57298-U SPME fiber assembly Divinylbenzene/Carboxen/Polydimethylsiloxane (DVB/CAR/PDMS, Supelco) needle size 23 ga, StableFlex, was used with an autosampler and analyzed by GC-MS as previously described [Davidovich-Rikanati R. et al., Nature Biotech (2007) 25:899-901; Davidovich-Rikanati R. et al., Plant J (2008) 56:228-238]. […]

Molecule | Sesquiterpenes produced with FPP
B1 | caryophyllene, humulene
B2 | bisabolene
